The values below come from US20130217572A1, “SPECIFIC DELIVERY OF AGROCHEMICALS” (VRIJE UNIVERSITEIT BRUSSEL, priority 2010, published 2013).

For test [1], the target named is T1, potato lectin (Sigma) (potato, UniProt Q9S8M0 23-323).
T1 construct: Bought glycoprotein, coated on ELISA plates
T1 sequence (looked up): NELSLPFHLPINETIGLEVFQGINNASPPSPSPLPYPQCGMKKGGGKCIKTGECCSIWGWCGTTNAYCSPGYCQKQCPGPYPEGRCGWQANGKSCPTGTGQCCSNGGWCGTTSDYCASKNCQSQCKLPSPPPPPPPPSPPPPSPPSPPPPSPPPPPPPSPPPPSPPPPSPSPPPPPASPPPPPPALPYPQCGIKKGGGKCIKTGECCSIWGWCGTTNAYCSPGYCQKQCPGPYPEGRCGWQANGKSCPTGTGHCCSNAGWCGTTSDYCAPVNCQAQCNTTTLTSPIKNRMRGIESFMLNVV
Nature of the test: microcapsule retention; L: amine capsules, BS3 two-step, 0.1 ug VHH/cm2; potato lectin coat 10 ug/ml; 100% coverage.

Test [2] addresses T1, potato lectin (Sigma). Nature of the test: microcapsule retention; G: amine capsules, BS3 one-step, 1 ug VHH/cm2; potato lectin coat 100 ug/ml; 100% coverage.
Test [3] deals with T1, potato lectin (Sigma). Description: microcapsule retention; C: carboxyl capsules, EDC/Sulfo-NHS, 1 ug VHH/cm2; potato lectin coat 1 ug/ml; 10% coverage.
Test [4] has as its target T1, potato lectin (Sigma). Description: microcapsule retention; G: amine capsules, BS3 one-step, 1 ug VHH/cm2; potato lectin coat 10 ug/ml; 10% coverage.
The target in test [5] is T1, potato lectin (Sigma). Nature of the test: microcapsule retention; H: amine capsules, BS3 one-step, 0.1 ug VHH/cm2; potato lectin coat 1 ug/ml; 10% coverage.
For test [6], the target named is T1, potato lectin (Sigma). Description: microcapsule retention; D: carboxyl capsules, EDC/Sulfo-NHS, 0.1 ug VHH/cm2; potato lectin coat 10 ug/ml; 100% coverage.
Test [7] has as its target T1, potato lectin (Sigma). Description: microcapsule retention; C: carboxyl capsules, EDC/Sulfo-NHS, 1 ug VHH/cm2; potato lectin coat 1 ug/ml; 100% coverage.
Test [8] has as its target T1, potato lectin (Sigma). Description: microcapsule retention; C: carboxyl capsules, EDC/Sulfo-NHS, 1 ug VHH/cm2; potato lectin coat 100 ug/ml; 10% coverage.
The target in test [9] is T1, potato lectin (Sigma). Nature of the test: microcapsule retention; L: amine capsules, BS3 two-step, 0.1 ug VHH/cm2; potato lectin coat 1 ug/ml; 100% coverage.
The test system of a further test is potato leaf surface. Description: VHH binding to leaf discs (microscopy). Also on record: species or system potato (variety Désirée). As to conditions: 5 μg/ml in PBS, anti-histidine Alexa-488 detection. As for the experimental part:
VHH binding to non-fixed leaf discs of potato (variety Désirée), black nightshade, grass, wheat or azalea was investigated. For comparison, binding of CBM3a to non-fixed leaf discs of potato (variety Désirée) was analyzed in parallel. Leaf discs were prepared by punching a fresh potato leaf with a 5 mm belt hole puncher tool. Leaf discs were put immediately in wells of a 96-well plate containing 200 μl per well 5% MPBS or PBS, and incubated for 30 minutes. Leaf discs were transferred to solutions containing 5 μg/ml VHH antibody fragment, respectively 5 μg/ml CBM3a in 2% MPBS or PBS and incubated for 60-90 minutes. Unbound VHH or CBM3a proteins were removed by washing three times with 2% MPBS or PBS. Bound VHH or CBM3a proteins were detected with incubation with monoclonal mouse anti-histidine antibodies directly conjugated with Alexa-488 fluorescent dye (Abd Serotec) in 1% MPBS for 1 hour. Unbound antibodies were removed by washing three times with PBS. Leaf discs were put on glass slides, covered with cover slips, and analyzed by microscopy or on a macrozoom microscope system (Nikon) or a SP5 confocal microscope system (Leica).

The test system of a further test is potato leaf discs. Nature of the test: Leaf disc binding assay with VHH-coupled Uvitex microcapsules. Details: species or system potato (variety Désirée). The procedure:
A leaf disc binding assay was used to evaluate the interaction of VHH-coupled microcapsules with potato, grass and azalea leaves. ø 8 mm leaf discs were sampled from the leaves of potato pot plants (variety Désirée), from the leaves of greenhouse-grown Lollium perenne and from the leaves of azalea pot plants. Leaf discs were washed three times with PBS. Microcapsules containing lambda cyhalothrin or Uvitex were diluted to appropriate densities in 1% skimmed milk in PBS with 0.05%-TWEEN®-20. Microcapsules were added to the leaf discs and settling of microcapsules and binding of targeting agents allowed for 1 hour. Unbound microcapsules were removed by washing three to five times with PBS with 0.05%-TWEEN®-20.
Leaf discs with Uvitex microcapsules were analyzed for bound microcapsules on a macrozoom microscope system (Nikon). Microcapsules were counted using Volocity image analysis software (Perkin Elmer). A DAPI filter was used to visualize Uvitex microcapsules. […]
A titration experiment was performed to investigate what dilution factor of microcapsules with specific VHH corresponds to an application of microcapsules to which no VHH were coupled to obtain similar amounts of microcapsules after an identical treatment. Two-fold serial dilutions of microcapsules were prepared and leaf disc binding was analyzed on potato leaf discs for these dilution series. […]

Test [10] addresses unrelated antigens. Nature of the test: VHH-coupled Uvitex OB microcapsules retained on wells coated with unrelated antigen; 4% surface coverage.
Test [11] concerns the target unrelated antigens. Description: VHH-coupled lambda-cyhalothrin microcapsules retained on wells coated with unrelated antigen; 4% surface coverage.

On to Control VHH, for which the microcapsule counts (microcapsules) with potato lectin (Sigma) [1] was determined as 787; with potato lectin (Sigma) [2] it was 150; in the test with potato lectin (Sigma) [3] it was 49; with potato lectin (Sigma) [4], 13; with potato lectin (Sigma) [5], 36; with potato lectin (Sigma) [6] it was 475. In addition, the microcapsule counts (microcapsules) with potato lectin (Sigma) [7] came to 193; with potato lectin (Sigma) [8], 55; in the test with potato lectin (Sigma) [9], 860.

B1: VHH 3E6 (VHH)
VHH: QVQLQESGGGLVQPGGTLSLSCAASGFNVRWYGMGWFRQAPGKEREGVACISALQETTAYADSVKGRFTLSRDNPKNTLSLQMNNLQPEDTGVYYCATTDCDDSSRMTYTSYLGQGTQVTVSS
notes: also called Monovalent VHH 3E6
For the molecule B1, the “binding to native potato leaf surface” value is “binding leaf surface, stomata, glandular trichomes, and leaf hairs” in the test with potato leaf surface; “clearly binding to trichomes, stomata and cuticle” with potato leaf surface (listed as 3E6). Also, the “binding and retaining of Uvitex microcapsules to leaf surfaces” value in the test with potato leaf discs was “capable of binding and retaining microcapsules specifically to leaf surfaces”. This molecule also registered an area of bound microcapsules in the test with unrelated antigens [10] of 23.5. Also, the counts of bound microcapsules (microcapsules) with unrelated antigens [11] amounted to 386.
